B1: E-box 12-mer C/5caC (dsDNA)
DNA 1: TGCCACGTGACC
DNA 2: GGTCACGTGGCA
modifications: 5caC at position 6 of strand 2
B2: E-box 12-mer C/5hmC (dsDNA)
DNA 1: TGCCACGTGACC
DNA 2: GGTCACGTGGCA
modifications: 5hmC at position 6 of strand 2
B3: E-box 12-mer C/C (dsDNA)
DNA 1: TGCCACGTGACC
DNA 2: GGTCACGTGGCA
B4: E-box 12-mer C/5mC (dsDNA)
DNA 1: TGCCACGTGACC
DNA 2: GGTCACGTGGCA
modifications: 5mC at position 6 of strand 2
B5: E-box 12-mer C/5fC (dsDNA)
DNA 1: TGCCACGTGACC
DNA 2: GGTCACGTGGCA
modifications: 5fC at position 6 of strand 2
B6: Control-2 (dsDNA)
DNA 1: GAGGCGTGGC
DNA 2: TTGCCACGCCTC
B7: Control-1 (dsDNA)
DNA 1: GTCAGCGCATGG
DNA 2: CCATGCGCTGAC

These binders were tested against MAX H28R (Homo sapiens, UniProt P61244 1-160, H28R) (assay: fluorescence polarization).
Chain of MAX H28R (P61244 whole entry H28R): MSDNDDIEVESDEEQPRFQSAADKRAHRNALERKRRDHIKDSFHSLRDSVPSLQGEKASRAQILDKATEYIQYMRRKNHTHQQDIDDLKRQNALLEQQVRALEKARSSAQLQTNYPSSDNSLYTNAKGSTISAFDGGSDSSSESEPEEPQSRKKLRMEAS

Binder	Kd [nM]
B1	< 5
B2	< 5
B3	< 5
B4	< 5
B5	< 5

Each binder was assayed against T1, MAX full length (Homo sapiens, UniProt P61244 1-160) (assay: fluorescence polarization).
T1 sequence (P61244 whole entry): as the sequence (P61244 whole entry H28R) above, with R28H counted along it

Binder	binding signal [fold weaker than C]
B2	> 13
B4	> 13
B5	8

Molecular target: T1, MAX full length
Assay: fluorescence polarization
Remark: another data set of the same source

Binder	binding result
B6	no binding
B7	no binding

Reference: article PMC5389568
